Results: patent US20250250357A1 (NANJING ZAIMING PHARMACEUTICAL, published 2025)

T1: monkey MSLN on HEK293T-monkey MSLN recombinant cells (monkey)
T1 construct: Full-length precursor as transfected; processing on the cell is not described; also called HEK293-monkey MSLN
T1 chain: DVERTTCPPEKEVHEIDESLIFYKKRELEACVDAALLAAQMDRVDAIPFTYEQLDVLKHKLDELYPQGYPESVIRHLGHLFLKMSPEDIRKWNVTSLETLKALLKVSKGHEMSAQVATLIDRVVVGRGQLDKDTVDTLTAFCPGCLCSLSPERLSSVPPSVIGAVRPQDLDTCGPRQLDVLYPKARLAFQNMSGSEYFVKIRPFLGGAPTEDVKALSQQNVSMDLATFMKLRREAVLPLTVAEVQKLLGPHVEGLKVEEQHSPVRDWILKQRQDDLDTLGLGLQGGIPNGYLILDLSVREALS

B1: F7.44.20-VL-VH (scFv)
chain: QIVLTQSPALMSASPGEKVTLTCSASSSVISSYLSWYQQKPGSSPKLLIYRTSNLASGVPARFSGSGSGTSYSLTISSMEAEDAASYFCHQWSSFPYTFGGGTKLEIKGGGGSGGGGSGGGGSEVQLQQSGPELVKPGASVKIPCKASGYTFTDYNMDWVKQSHGKSLEWIGDINPSTGGTIYNQKFNGKATLTEDKSASTVYMEFRSLTSDDTAVYYCARRRIGTGYFDVWGTGTTVTVSS
B2: Tab106 (YP218, hIgG1) (antibody, V domains shown)
VH: QQQLEESGGGLVKPEGSLTLTCKASGFDLGFYFYACWVRQAPGKGLEWIACIYTAGSGSTYYASWAKGRFTISKASSTTVTLQMTSLAAADTATYFCARSTANTRSTYYLNLWGPGTLVTVSS
VL: DVVMTQTPASVSEPVGGTVTIKCQASQRISSYLSWYQQKPGQRPKLLIFGASTLASGVPSRFKGSGSGTEYTLTISDLECADAATYYCQSYAYFDSNNWHAFGGGTEVVVRT
notes: Control antibody; VH and VL recombined into human IgG1 CH and CL expression vectors; also called YP218 human IgG1 antibody; anti-human MSLN-R3 antibody
B3: S009-F5-9.16 (antibody, human IgG1, kappa, V domains shown)
VH: EVQLRQSGPVLVKPGASVKMSCKASGYTFTDYFMNWVKPSHGKSLEWIGVINPSNGVINYNQRFKGKATLTVDKSSSTAYMELNSLTSEDSAVYYCARSYDFAWFAYWGQGTLVTVSA
VL: DVLMTQTPLSLPVSLGDQASISCRSSQNIVHSNGNTYLEWYLQKPGQSPKLLIYTVSNRFSGVPDRFSGSGSGTDFTLKISRVEAEDLGVYYCFQGSHVPYTFGGGTKLEIKR
notes: Human-murine chimeric antibody, human IgG1/kappa constant regions
B4: F7.44.20 (scFv)
chain: EVQLQQSGPELVKPGASVKIPCKASGYTFTDYNMDWVKQSHGKSLEWIGDINPSTGGTIYNQKFNGKATLTEDKSASTVYMEFRSLTSDDTAVYYCARRRIGTGYFDVWGTGTTVTVSSGGGGSGGGGSGGGGSQIVLTQSPALMSASPGEKVTLTCSASSSVISSYLSWYQQKPGSSPKLLIYRTSNLASGVPARFSGSGSGTSYSLTISSMEAEDAASYFCHQWSSFPYTFGGGTKLEIK
B5: S009-F6-76.1 (antibody, human IgG1, kappa, V domains shown)
VH: QVQLQQSGPELVKPGASVKISCKASGYTFTDYYINWVKQRPGQGLEWIGWIFPGRGSTFYYEKFKGKATLTVDKSSSTAYMLLSSLTSEDSAVYFCARRGDSAGYEDLDYWGQGTSVTVSS
VL: NIVMTQSPKFMSMSVGERVTLSCKASENVVTYVSWYQQKPKQSPKLLIYGASKRYTGVPDRFTGSGSATDFTLTISSVQAEDLGDYHCGQSYSYPYTFGGGTKLEIKR
notes: as for B3

Experiments:
[1] = target: human MSLN on OVCAR3 tumor cells (human, UniProt Q13421 296-598); assay: FACS, OVCAR3 cells
[2] = target: T1, monkey MSLN on HEK293T-monkey MSLN …; assay: FACS, HEK293T-monkey MSLN cells
[3] = target: T2, human MSLN-R3 on HEK293T-hMSLN-R3 recombinant cells (human, UniProt Q13421 487-606); assay: FACS, HEK293T-hMSLN-R3 cells
T2 construct: the C-terminal limit is uncertain; also called human MSLN-R3 membrane protein

[4] = target: T3, human MSLN-R3-his protein (human, UniProt Q13421 487-598); assay: ELISA; antibody 1 nM
T3 construct: also called hMSLN-R3-his; not shown: His tag

[5] = target: T4, human MSLN-R2-his protein (human, UniProt Q13421 391-486); assay: ELISA; antibody 1 nM
T4 construct: also called hMSLN-R2-his; not shown: His tag
T4 sequence (Q13421 other isoform, or with tags, fused parts or gaps): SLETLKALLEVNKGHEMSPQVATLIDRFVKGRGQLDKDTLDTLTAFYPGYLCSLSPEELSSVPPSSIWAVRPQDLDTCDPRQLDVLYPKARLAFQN

[6] = target: T3, human MSLN-R3-his protein; assay: ELISA; antibody 1 nM; remark: listed apart in the source
[7] = target: T4, human MSLN-R2-his protein; assay: ELISA; antibody 0.0001 nM
[8] = target: T4, human MSLN-R2-his protein; assay: ELISA; antibody 0 nM (blank)
[9] = target: T3, human MSLN-R3-his protein; assay: ELISA; antibody 0.01 nM
[10] = target: T3, human MSLN-R3-his protein; assay: ELISA; antibody 0.1 nM
[11] = target: T3, human MSLN-R3-his protein; assay: ELISA; antibody 0.0001 nM
[12] = target: T4, human MSLN-R2-his protein; assay: ELISA; antibody 10 nM
[13] = target: T3, human MSLN-R3-his protein; assay: ELISA; antibody 100 nM
[14] = target: T3, human MSLN-R3-his protein; assay: ELISA; antibody 0.001 nM
[15] = target: T4, human MSLN-R2-his protein; assay: ELISA; antibody 0.001 nM
[16] = target: T4, human MSLN-R2-his protein; assay: ELISA; antibody 1 nM; remark: listed apart in the source
[17] = target: T3, human MSLN-R3-his protein; assay: ELISA; antibody 10 nM
[18] = target: T3, human MSLN-R3-his protein; assay: ELISA; antibody 0 nM (blank)
[19] = target: T4, human MSLN-R2-his protein; assay: ELISA; antibody 0.01 nM
[20] = target: T4, human MSLN-R2-his protein; assay: ELISA; antibody 0.1 nM
[21] = target: T4, human MSLN-R2-his protein; assay: ELISA; antibody 100 nM
[22] = target: T5, human MSLN-R1-his protein (human, UniProt Q13421 296-390); assay: ELISA, coated antigen; antibody 0.01 nM
T5 construct: also called human MSLN-R1 protein; hMSLN-R1-his; not shown: His tag

[23] = target: T6, human MSLN-R2-his protein (human, UniProt Q13421 391-486); assay: ELISA, coated antigen; no antibody (blank, column 'none')
T6 construct: also called human MSLN-R2 protein; hMSLN-R2-his; not shown: His tag

[24] = target: T7, human MSLN-FL-his protein (human, UniProt Q13421 296-580); assay: ELISA, coated antigen; antibody 1 nM
T7 construct: also called human MSLN full-length protein; hMSLN-FL-his; not shown: His tag

[25] = target: T7, human MSLN-FL-his protein; assay: ELISA, coated antigen; antibody 100 nM
[26] = target: T6, human MSLN-R2-his protein; assay: ELISA, coated antigen; antibody 100 nM
[27] = target: T5, human MSLN-R1-his protein; assay: ELISA, coated antigen; antibody 0.0001 nM
[28] = target: T7, human MSLN-FL-his protein; assay: ELISA, coated antigen; antibody 0.001 nM
[29] = target: T6, human MSLN-R2-his protein; assay: ELISA, coated antigen; antibody 10 nM
[30] = target: T5, human MSLN-R1-his protein; assay: ELISA, coated antigen; no antibody (blank, column 'none')
[31] = target: T7, human MSLN-FL-his protein; assay: as above
[32] = target: T7, human MSLN-FL-his protein; assay: ELISA, coated antigen; antibody 10 nM
[33] = target: T5, human MSLN-R1-his protein; assay: ELISA, coated antigen; antibody 10 nM
[34] = target: T7, human MSLN-FL-his protein; assay: ELISA, coated antigen; antibody 0.01 nM
[35] = target: T6, human MSLN-R2-his protein; assay: ELISA, coated antigen; antibody 1 nM
[36] = target: T5, human MSLN-R1-his protein; assay: ELISA, coated antigen; antibody 100 nM
[37] = target: T6, human MSLN-R2-his protein; assay: ELISA, coated antigen; antibody 0.01 nM
[38] = target: T6, human MSLN-R2-his protein; assay: ELISA, coated antigen; antibody 0.1 nM
[39] = target: T5, human MSLN-R1-his protein; assay: ELISA, coated antigen; antibody 0.1 nM
[40] = target: T6, human MSLN-R2-his protein; assay: ELISA, coated antigen; antibody 0.001 nM
[41] = target: T5, human MSLN-R1-his protein; assay: ELISA, coated antigen; antibody 1 nM
[42] = target: T7, human MSLN-FL-his protein; assay: ELISA, coated antigen; antibody 0.0001 nM
[43] = target: T7, human MSLN-FL-his protein; assay: ELISA, coated antigen; antibody 0.1 nM
[44] = target: T6, human MSLN-R2-his protein; assay: ELISA, coated antigen; antibody 0.0001 nM
[45] = target: T5, human MSLN-R1-his protein; assay: ELISA, coated antigen; antibody 0.001 nM

T3 sequence (Q13421 495-606): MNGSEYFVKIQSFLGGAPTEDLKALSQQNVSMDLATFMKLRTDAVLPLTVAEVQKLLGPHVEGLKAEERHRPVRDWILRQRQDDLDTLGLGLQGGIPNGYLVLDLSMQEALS
T7 sequence (Q13421 other isoform, or with tags, fused parts or gaps): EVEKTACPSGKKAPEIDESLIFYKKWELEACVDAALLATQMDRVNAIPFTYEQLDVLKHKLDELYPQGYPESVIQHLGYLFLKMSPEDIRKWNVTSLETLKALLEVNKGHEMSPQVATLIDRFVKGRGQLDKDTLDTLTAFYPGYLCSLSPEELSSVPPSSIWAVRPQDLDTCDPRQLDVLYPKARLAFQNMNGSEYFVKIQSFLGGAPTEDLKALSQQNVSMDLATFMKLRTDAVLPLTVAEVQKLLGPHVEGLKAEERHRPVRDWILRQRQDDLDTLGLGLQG
T5 sequence (Q13421 other isoform, or with tags, fused parts or gaps): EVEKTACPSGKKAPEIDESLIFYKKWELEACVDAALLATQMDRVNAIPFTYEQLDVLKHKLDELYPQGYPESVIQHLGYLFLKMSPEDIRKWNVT
Chain of human MSLN on OVCAR3 tumor cells (Q13421 other isoform, or with tags, fused parts or gaps): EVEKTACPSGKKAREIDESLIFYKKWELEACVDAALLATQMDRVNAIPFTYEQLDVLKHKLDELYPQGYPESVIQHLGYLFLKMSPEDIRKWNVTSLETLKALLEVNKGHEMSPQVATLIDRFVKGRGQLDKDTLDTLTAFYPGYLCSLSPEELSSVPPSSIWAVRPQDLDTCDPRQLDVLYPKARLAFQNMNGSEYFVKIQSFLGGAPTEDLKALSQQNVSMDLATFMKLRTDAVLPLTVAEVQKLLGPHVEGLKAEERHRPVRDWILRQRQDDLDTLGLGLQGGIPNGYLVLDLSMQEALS
T2 sequence (Q13421 495-614): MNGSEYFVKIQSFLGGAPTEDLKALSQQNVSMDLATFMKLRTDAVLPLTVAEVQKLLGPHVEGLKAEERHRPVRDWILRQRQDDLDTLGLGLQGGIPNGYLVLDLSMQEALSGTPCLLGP

Binder	EC50 [1]	Maximum_MFI [1]	EC50 [2]	Maximum_MFI [2]	EC50 [3]	Maximum_MFI [3]	OD450 [22]	OD450 [23]	OD450 [24]	OD450 [25]	OD450 [26]	OD450 [27]	OD450 [28]	OD450 [29]	OD450 [30]	OD450 [31]	OD450 [32]	OD450 [33]	OD450 [34]	OD450 [35]	other results
B1	1.09 nM	2920 MFI	2.97 nM	11100 MFI	0.48 nM	1850 MFI	–	–	–	–	–	–	–	–	–	–	–	–	–	–	–
B2	–	–	–	–	–	–	–	–	–	–	–	–	–	–	–	–	–	–	–	–	OD450 nm [4]: 0.62; OD450 nm [5]: 0.05; OD450 nm [6]: 0.62; OD450 nm [7]: 0.04; OD450 nm [8]: 0.05; OD450 nm [9]: 0.06; OD450 nm [10]: 0.12; OD450 nm [11]: 0.05; OD450 nm [12]: 0.11; OD450 nm [13]: 2.29; OD450 nm [14]: 0.05; OD450 nm [15]: 0.04; OD450 nm [16]: 0.05; OD450 nm [17]: 1.75; OD450 nm [18]: 0.05; OD450 nm [19]: 0.04; OD450 nm [20]: 0.05; OD450 nm [21]: 0.7
B3	–	–	–	–	–	–	0.04 OD450	0.05 OD450	0.06 OD450	1.12 OD450	0.13 OD450	0.05 OD450	0.04 OD450	0.06 OD450	0.04 OD450	0.05 OD450	0.19 OD450	0.05 OD450	0.04 OD450	0.04 OD450	OD450 [36]: 0.09 OD450; OD450 [37]: 0.04 OD450; OD450 [38]: 0.04 OD450; OD450 [39]: 0.04 OD450; OD450 [40]: 0.04 OD450; OD450 [41]: 0.04 OD450; OD450 [42]: 0.04 OD450; OD450 [43]: 0.04 OD450; OD450 [44]: 0.04 OD450; OD450 [45]: 0.04 OD450
B4	2.42 nM	1600 MFI	8.38 nM	7040 MFI	1.27 nM	1450 MFI	–	–	–	–	–	–	–	–	–	–	–	–	–	–	–
B5	–	–	–	–	–	–	0.04 OD450	0.05 OD450	2.87 OD450	2.83 OD450	0.33 OD450	0.04 OD450	0.29 OD450	0.2 OD450	0.04 OD450	0.05 OD450	2.87 OD450	0.04 OD450	1.09 OD450	0.12 OD450	OD450 [36]: 0.06 OD450; OD450 [37]: 0.04 OD450; OD450 [38]: 0.07 OD450; OD450 [39]: 0.04 OD450; OD450 [40]: 0.04 OD450; OD450 [41]: 0.04 OD450; OD450 [42]: 0.1 OD450; OD450 [43]: 2.4 OD450; OD450 [44]: 0.05 OD450; OD450 [45]: 0.04 OD450
